# Legend:
# homodimeric PSMA = homodimeric PSMA (Homo sapiens, UniProt Q04609); assay: Phage-based ELISA, binding to PSMA dimer; details: for relative binding affinity to PSMA compared with parent peptide 2: 1 μg/mL homodimeric PSMA, half of the binding time (FIG. 1A); for binding to PSMA dimer: phage-displayed peptide, 1 μg/mL PSMA dimer, ELISA (FIG. 5)
# From the text: (§1) An eight residue long peptide with the amino acid sequence […] [SEQ ID NO: 1], was previously identified as a PSMA binder from an 8-mer (X8) library. […] (also referred to as peptide 1 in the Figures) to PSMA as reported previously. In addition to […] [SEQ ID NO: 1], the inventors also examined a longer 13-mer peptide, selected from a disulfide-constrained library with the amino acid sequence […] [SEQ ID NO: 3] (also referred to as peptide 2 in the Figures).
# The five peptides [SEQ ID NOs: 4-8] […] These peptides were assayed for binding to 1 μg/mL of homodimeric PSMA, a concentration 10-fold less than the parent peptide required for binding assays. This higher stringency can better distinguish very high from moderate affinity binders. […] FIG. 1A illustrated peptides selected from homolog shotgun scanning library. FIG. 1B illustrates relative affinity of selected peptide 3 [SEQ ID NO: 4] versus the previous highest affinity peptide 1 [SEQ ID NO: 2]. FIG. 1C illustrates a bar graph showing that 20 nM phage displaying peptide 1 [SEQ ID NO: 2] has binding affinity similar to that of 0.2 nM phage displaying peptide 3 [SEQ ID NO: 4], and 20 nM phage displaying parent peptide 2 [SEQ ID NO: 3] has binding affinity similar to 0.02 nM phage displaying peptide 3 [SEQ ID NO: 4].
# A phage-based ELISA was performed using purified peptide 10 to determine whether the peptide enhances the binding to immobilized PSMA. […] Here, the graph illustrates results for the phage displaying peptide 3 [SEQ ID NO.4], wrapped with peptide 10 binding 1 μg/mL PSMA dimer
# [1] = target: transferrin receptor (TfR) (Homo sapiens, UniProt P02786); assay: Cross-reactivity for binding transferrin receptor; details: homolog of PSMA (54% sequence identical)
# Sequence of transferrin receptor (TfR) (P02786 whole entry, species assumed): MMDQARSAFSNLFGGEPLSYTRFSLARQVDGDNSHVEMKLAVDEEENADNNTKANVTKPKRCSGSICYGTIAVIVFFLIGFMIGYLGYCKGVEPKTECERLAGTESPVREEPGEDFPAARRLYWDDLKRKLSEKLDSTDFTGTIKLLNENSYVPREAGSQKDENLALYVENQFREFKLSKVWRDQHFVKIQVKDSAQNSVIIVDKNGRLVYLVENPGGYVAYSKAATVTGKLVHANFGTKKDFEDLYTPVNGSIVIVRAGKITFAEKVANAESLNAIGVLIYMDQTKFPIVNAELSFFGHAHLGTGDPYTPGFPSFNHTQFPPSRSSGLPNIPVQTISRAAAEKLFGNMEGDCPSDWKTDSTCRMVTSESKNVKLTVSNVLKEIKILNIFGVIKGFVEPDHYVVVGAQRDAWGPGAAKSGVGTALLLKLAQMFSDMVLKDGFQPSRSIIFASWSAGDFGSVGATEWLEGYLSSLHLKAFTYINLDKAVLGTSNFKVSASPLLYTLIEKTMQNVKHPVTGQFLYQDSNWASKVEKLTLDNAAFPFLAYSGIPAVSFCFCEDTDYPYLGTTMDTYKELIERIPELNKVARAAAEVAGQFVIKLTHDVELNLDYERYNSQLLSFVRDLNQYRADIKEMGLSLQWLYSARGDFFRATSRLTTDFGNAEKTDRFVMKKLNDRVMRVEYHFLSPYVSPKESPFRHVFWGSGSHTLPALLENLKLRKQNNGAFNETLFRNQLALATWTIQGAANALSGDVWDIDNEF
# From the text: It should be noted that the two substitutions incorporated in the sequence of peptide 3 [SEQ ID NO: 4] were L1S and D2E. The serine substitution removes a hydrophobic leucine residue, which provides the peptide with a more polar side chain, which can accept and donate hydrogen bonds (H-bonds). The hydroxyl group likely improves the surface complementarity at the binding interface with PSMA by creating new H-bonding contacts with the protein backbone, or by participating in an extended H-bonding network directly or indirectly through water to other side chains at the binding site. The selection of Glu in place of Asp merely extends the side chain length by one carbon unit. This substitution maintains contribution of the carboxylate functionality, and the length extension of 1.5 Å could allow for new H-bonding or salt-bridging opportunities. Clearly, the core sequence of the selected peptides is critical for the molecular recognition of PSMA, and this core remained conserved in the tightest binding peptides.
# PSMA monomer = PSMA monomer (Homo sapiens, UniProt Q04609); assay: Phage-displayed ELISA, binding to PSMA monomer; details: phage-displayed peptide, 1 μg/mL PSMA monomer, ELISA (FIG. 5)
# Sequence of PSMA monomer (Q04609 whole entry): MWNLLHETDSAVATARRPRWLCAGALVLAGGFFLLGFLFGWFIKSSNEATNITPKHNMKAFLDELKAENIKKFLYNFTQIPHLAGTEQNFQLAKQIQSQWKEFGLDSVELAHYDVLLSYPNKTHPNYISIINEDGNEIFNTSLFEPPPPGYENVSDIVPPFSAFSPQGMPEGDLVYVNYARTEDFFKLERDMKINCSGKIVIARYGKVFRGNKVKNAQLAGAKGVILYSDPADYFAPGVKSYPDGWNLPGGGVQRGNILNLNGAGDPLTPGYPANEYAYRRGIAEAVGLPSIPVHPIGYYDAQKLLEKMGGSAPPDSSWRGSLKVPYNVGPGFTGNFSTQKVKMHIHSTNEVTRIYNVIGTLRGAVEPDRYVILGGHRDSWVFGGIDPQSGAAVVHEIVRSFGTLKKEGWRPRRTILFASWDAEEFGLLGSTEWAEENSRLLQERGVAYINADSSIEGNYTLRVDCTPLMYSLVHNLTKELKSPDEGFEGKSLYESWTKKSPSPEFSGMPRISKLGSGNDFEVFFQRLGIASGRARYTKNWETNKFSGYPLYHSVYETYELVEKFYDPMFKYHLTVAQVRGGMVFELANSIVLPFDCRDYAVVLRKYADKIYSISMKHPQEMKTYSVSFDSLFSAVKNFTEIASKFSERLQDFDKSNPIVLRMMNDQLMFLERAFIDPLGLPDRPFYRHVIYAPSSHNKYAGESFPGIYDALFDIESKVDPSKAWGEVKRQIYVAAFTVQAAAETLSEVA
# From the text: as §1
# PSMA = PSMA (Homo sapiens, UniProt Q04609); details: phage-displayed ELISAs, QCM, EIS; as reported previously; cited from earlier work
# Sequence of PSMA (Q04609 whole entry): as above
# [2] = phage-based ELISA with 20 nM phage, phage concentration versus HRP activity (FIGS. 1B, 1C)
# Sequence of homodimeric PSMA (Q04609 whole entry): as above
sequence,measurement,setting,value
"SECVEVFQNSCDW [peptide 3, peptide from the homolog shotgun scanning library]",relative binding affinity to PSMA compared with parent peptide 2,homodimeric PSMA,higher affinity towards the target
same,phage concentration with binding affinity similar to 20 nM phage displaying parent peptide 2,homodimeric PSMA; PSMA 1 μg/mL (FIG. 1C),0.02 nM
same,phage concentration with binding affinity similar to 20 nM phage displaying peptide 1,homodimeric PSMA; PSMA 1 μg/mL (FIG. 1C),0.2 nM
same,fold higher affinity for PSMA compared to parent peptide 2,homodimeric PSMA; [2],≈ 1000 times
same,fold higher affinity for PSMA than peptide 1,homodimeric PSMA; [2],≈ 100 times
same,cross-reactivity for binding transferrin receptor (TfR),[1],no detectable cross-reactivity
"CALCEFLG (Synthetic oligopeptiide) [peptide 1, reference compound]",binding to PSMA monomer,PSMA monomer,efficient binding
same,apparent affinity for dimeric PSMA relative to the monomeric isoform,"homodimeric PSMA; phage-displayed ELISA, dimer versus monomer",exceeds affinity for the monomeric isoform
same,binding to PSMA dimer,homodimeric PSMA,efficient binding
same,binding to PSMA dimer,homodimeric PSMA; listed as Peptide 1,higher affinity to PSMA dimer than peptide 2
same,binding to PSMA,PSMA,strong binding
"LDCVEVFQNSCDW [peptide 2, 13-mer peptide selected from a disulfide-constrained library; parent of the homolog library]",binding to PSMA monomer,PSMA monomer,fails to bind the monomer with significant affinity
same,binding to PSMA monomer,PSMA monomer; listed as Peptide 2,does not bind PSMA monomer with appreciable affinity
same,binding to PSMA dimer,homodimeric PSMA,only binds to dimeric PSMA
"SDCVEVFQNSCDW [compound 4, peptide from the homolog shotgun scanning library]",relative binding affinity to PSMA compared with parent peptide 2,homodimeric PSMA,higher affinity towards the target

# From patent publication US8986655B2, “Compositions, devices, and methods related to prostate-specific membrane antigen” (The Regents of the University of California, priority 2009, dated 2015)
